Experiments:
BCDX2 complex [1] = molecular target: T1, BCDX2 complex (human, UniProt O15315;O43502;O75771;O43543 1-384;1-376;1-328;1-280); assay: EMSA; 10 nt sufficient within reversed fork; EMSA: 20 mM Tris-HCl pH 7.5, 2 mM MgCl2, 2 mM ATP, 37 C, 20 nM DNA, glutaraldehyde fixation; stopped-flow: 25 mM Tris-HCl pH 7.5, 5 mM MgCl2, 50 mM KCl, 2 mM ATP, 0.5 mM EDTA, 10% glycerol, 37 C; BLI: 50 mM Tris-HCl pH 7.5, 2 mM ATP, 50 mM KCl, 5 mM MgCl2, 0.05% Tween 20, room temperature; details: protein: recombinant; tags: Strep-tag and His-tag (XRCC2 N-terminal His); copies: 1;1;1;1; label: 3' Cy3 on strand 1; reversed fork of 4 strands, 3' ssDNA tail 10 nt
T1 sequence 1: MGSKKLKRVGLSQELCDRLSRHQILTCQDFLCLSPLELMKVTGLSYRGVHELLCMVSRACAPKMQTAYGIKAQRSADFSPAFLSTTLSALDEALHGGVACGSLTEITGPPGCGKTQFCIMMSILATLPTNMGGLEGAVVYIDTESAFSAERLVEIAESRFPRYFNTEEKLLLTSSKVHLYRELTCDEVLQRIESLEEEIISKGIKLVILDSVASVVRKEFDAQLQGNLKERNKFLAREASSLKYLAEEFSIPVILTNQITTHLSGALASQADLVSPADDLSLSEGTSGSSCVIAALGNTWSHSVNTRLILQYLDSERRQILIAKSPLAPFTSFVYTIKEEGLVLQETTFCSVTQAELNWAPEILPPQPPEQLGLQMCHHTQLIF
T1 sequence 2: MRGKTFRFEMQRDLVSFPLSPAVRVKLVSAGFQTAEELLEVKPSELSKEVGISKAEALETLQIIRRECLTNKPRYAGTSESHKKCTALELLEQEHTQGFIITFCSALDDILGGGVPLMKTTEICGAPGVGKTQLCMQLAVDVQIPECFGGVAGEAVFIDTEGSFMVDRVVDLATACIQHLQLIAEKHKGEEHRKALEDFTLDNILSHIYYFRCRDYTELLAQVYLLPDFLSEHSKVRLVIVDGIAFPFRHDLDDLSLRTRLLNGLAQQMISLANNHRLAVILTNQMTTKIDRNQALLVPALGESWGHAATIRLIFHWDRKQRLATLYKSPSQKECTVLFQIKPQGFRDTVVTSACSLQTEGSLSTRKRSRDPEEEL
T1 sequence 3: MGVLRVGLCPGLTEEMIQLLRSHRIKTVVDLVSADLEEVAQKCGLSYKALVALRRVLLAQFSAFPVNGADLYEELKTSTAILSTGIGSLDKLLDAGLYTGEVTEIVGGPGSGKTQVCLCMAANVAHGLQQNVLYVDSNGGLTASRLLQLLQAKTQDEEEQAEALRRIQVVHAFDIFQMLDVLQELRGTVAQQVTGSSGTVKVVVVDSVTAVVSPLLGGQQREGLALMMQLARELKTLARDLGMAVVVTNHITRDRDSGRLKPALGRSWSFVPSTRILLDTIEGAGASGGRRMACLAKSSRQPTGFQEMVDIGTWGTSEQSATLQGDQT
T1 sequence 4: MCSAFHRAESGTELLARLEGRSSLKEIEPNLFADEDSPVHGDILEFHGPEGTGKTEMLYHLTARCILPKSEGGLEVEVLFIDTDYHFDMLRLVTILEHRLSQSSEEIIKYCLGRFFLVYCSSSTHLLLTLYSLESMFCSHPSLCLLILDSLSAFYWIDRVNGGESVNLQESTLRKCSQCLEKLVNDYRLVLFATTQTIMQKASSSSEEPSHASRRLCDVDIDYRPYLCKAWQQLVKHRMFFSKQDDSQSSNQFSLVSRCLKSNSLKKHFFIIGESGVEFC

RAD51;BCDX2(R159A) [2] = molecular target: T2, RAD51;BCDX2(R159A) (human?;human?, UniProt Q06609;O15315;O43502;O75771;O43543 1-339;1-384;1-376;1-328;1-280, |R159A); assay: BLI; RAD51 loading retained; EMSA: 20 mM Tris-HCl pH 7.5, 2 mM MgCl2, 2 mM ATP, 37 C, 20 nM DNA, glutaraldehyde fixation; stopped-flow: 25 mM Tris-HCl pH 7.5, 5 mM MgCl2, 50 mM KCl, 2 mM ATP, 0.5 mM EDTA, 10% glycerol, 37 C; BLI: 50 mM Tris-HCl pH 7.5, 2 mM ATP, 50 mM KCl, 5 mM MgCl2, 0.05% Tween 20, room temperature; details: protein: recombinant;recombinant; tags: ;; copies: 1;1;1;1;1; label: 3' Cy3 on strand 1; reversed fork of 4 strands, 3' ssDNA tail
T2 sequence (Q06609 whole entry, stated change not applied, one chain of several): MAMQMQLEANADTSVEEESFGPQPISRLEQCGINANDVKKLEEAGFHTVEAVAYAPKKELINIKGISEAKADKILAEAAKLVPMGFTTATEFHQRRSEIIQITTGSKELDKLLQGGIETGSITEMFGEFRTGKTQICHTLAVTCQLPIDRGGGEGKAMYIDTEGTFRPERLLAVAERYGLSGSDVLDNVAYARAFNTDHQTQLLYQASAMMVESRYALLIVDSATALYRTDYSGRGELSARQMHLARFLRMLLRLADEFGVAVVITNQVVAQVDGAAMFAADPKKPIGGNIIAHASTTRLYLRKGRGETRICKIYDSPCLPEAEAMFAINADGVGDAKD

RAD51;BCD(R266A)X2 [3] = molecular target: T3, RAD51;BCD(R266A)X2 (human?;human?, UniProt Q06609;O15315;O43502;O75771;O43543 1-339;1-384;1-376;1-328;1-280, |R266A); assay: as above; details: protein: recombinant;recombinant; tags: ;; copies: 1;1;1;1;1; label: 3' Cy3 on strand 1; reversed fork of 4 strands, 3' ssDNA tail
T3 sequence (Q06609 whole entry, stated change not applied, one chain of several): as above

RAD51;BCDX2 complex [4] = molecular target: T4, RAD51;BCDX2 complex (human?;human, UniProt Q06609;O15315;O43502;O75771;O43543 1-339;1-384;1-376;1-328;1-280, |); assay: BLI; enhanced RAD51 loading; EMSA: 20 mM Tris-HCl pH 7.5, 2 mM MgCl2, 2 mM ATP, 37 C, 20 nM DNA, glutaraldehyde fixation; stopped-flow: 25 mM Tris-HCl pH 7.5, 5 mM MgCl2, 50 mM KCl, 2 mM ATP, 0.5 mM EDTA, 10% glycerol, 37 C; BLI: 50 mM Tris-HCl pH 7.5, 2 mM ATP, 50 mM KCl, 5 mM MgCl2, 0.05% Tween 20, room temperature; details: protein: recombinant;recombinant; tags: ;Strep-tag and His-tag (XRCC2 N-terminal His); copies: 1;1;1;1;1; label: 3' Cy3 on strand 1; 5' biotin on strand 4; reversed fork of 4 strands, 3' ssDNA tail
T4 sequence (Q06609 whole entry, one chain of several): as the sequence (Q06609 whole entry, stated change not applied, one chain of several) above

RAD51;BCDX2 complex [5] = molecular target: T4, RAD51;BCDX2 complex; assay: BLI; BCDX2 facilitates RAD51 binding; EMSA: 20 mM Tris-HCl pH 7.5, 2 mM MgCl2, 2 mM ATP, 37 C, 20 nM DNA, glutaraldehyde fixation; stopped-flow: 25 mM Tris-HCl pH 7.5, 5 mM MgCl2, 50 mM KCl, 2 mM ATP, 0.5 mM EDTA, 10% glycerol, 37 C; BLI: 50 mM Tris-HCl pH 7.5, 2 mM ATP, 50 mM KCl, 5 mM MgCl2, 0.05% Tween 20, room temperature; details: protein: recombinant;recombinant; tags: ;Strep-tag and His-tag (XRCC2 N-terminal His); copies: 1;1;1;1;1; label: 5' biotin
BCDX2 complex [6] = molecular target: T1, BCDX2 complex; assay: EMSA; efficient binding; EMSA: 20 mM Tris-HCl pH 7.5, 2 mM MgCl2, 2 mM ATP, 37 C, 20 nM DNA, glutaraldehyde fixation; stopped-flow: 25 mM Tris-HCl pH 7.5, 5 mM MgCl2, 50 mM KCl, 2 mM ATP, 0.5 mM EDTA, 10% glycerol, 37 C; BLI: 50 mM Tris-HCl pH 7.5, 2 mM ATP, 50 mM KCl, 5 mM MgCl2, 0.05% Tween 20, room temperature; details: protein: recombinant; tags: Strep-tag and His-tag (XRCC2 N-terminal His); copies: 1;1;1;1; label: 5' FITC
RAD51;BCDX2(R159A) [7] = molecular target: T2, RAD51;BCDX2(R159A); assay: BLI; no RAD51 loading by mutant; EMSA: 20 mM Tris-HCl pH 7.5, 2 mM MgCl2, 2 mM ATP, 37 C, 20 nM DNA, glutaraldehyde fixation; stopped-flow: 25 mM Tris-HCl pH 7.5, 5 mM MgCl2, 50 mM KCl, 2 mM ATP, 0.5 mM EDTA, 10% glycerol, 37 C; BLI: 50 mM Tris-HCl pH 7.5, 2 mM ATP, 50 mM KCl, 5 mM MgCl2, 0.05% Tween 20, room temperature; details: protein: recombinant;recombinant; tags: ;; copies: 1;1;1;1;1; label: 5' biotin
RAD51;BCD(R266A)X2 [8] = molecular target: T3, RAD51;BCD(R266A)X2; assay: as above; details: protein: recombinant;recombinant; tags: ;; copies: 1;1;1;1;1; label: 5' biotin

B1: 10ntRVF (mixed)
DNA 1: GACGCTGCCGAATTCTACCAGTGCCTTGCTATTTTTTTTTT
DNA 2: ATCTGTTGTAATCGTCAAGCTTTATGCCGTT
DNA 3: GAACGGCATAAAGCTTGACGATTACAACAGATCATGGAGCTGTCTAGAGGATCCGACTATCGA
DNA 4: ATCGATAGTCGGATCCTCTAGACAGCTCCATGTAGCAAGGCACTGGTAGAATTCGGCAGCGT
Does B1 bind (BCDX2 complex [1])?
Result: binds

B2: 20ntRVF (mixed)
DNA 1: GACGCTGCCGAATTCTACCAGTGCCTTGCTATTTTTTTTTTTTTTTTTTTTTTTTT
DNA 2: B1 DNA 2
DNA 3: B1 DNA 3
DNA 4: B1 DNA 4
Does B2 bind (RAD51;BCDX2(R159A) [2])?
Result: binds

Does B2 bind (RAD51;BCD(R266A)X2 [3])?
Result: binds

B3: RVF25ssDNA (mixed)
DNA 1: GACGCTGCCGAATTCTACCAGTGCCTTGCTATTTTTTTTTTTTTTTTTTTTTTTTTTTTTT
DNA 2: B1 DNA 2
DNA 3: B1 DNA 3
DNA 4: B1 DNA 4
Does B3 bind (RAD51;BCDX2 complex [4])?
Result: binds

B4: biotin-dT15 (ssDNA)
DNA: TTTTTTTTTTTTTTT
Does B4 bind (RAD51;BCDX2 complex [5])?
Result: binds

B5: ssDNA 20mer (ssDNA)
DNA: GAATGTGTGTCTCAATC
Does B5 bind (BCDX2 complex [6])?
Result: binds

B6: biotin-dT20 (ssDNA)
DNA: TTTTTTTTTTTTTTTTTTTT
Does B6 bind (RAD51;BCDX2(R159A) [7])?
Result: no binding

Does B6 bind (RAD51;BCD(R266A)X2 [8])?
Result: no binding

Reference: article PMC11514458
